Results as given in patent publication US9745384B2, “Peptides useful for modulating histone demethylase function” (The Brigham and Women's Hospital, Inc., priority 2012, dated 2017).

Key:
H3Kc36me3 nucleosomes = assay: MLA nucleosome pulldown by GST-NPAC.d1; format: binding; details: H3Kc36me3, H3Kc79me3, H3Kc9me3, H3Kc27me3, unmodified
Method: MLA nucleosomes were reconstituted using 147 bp double-strand alpha satellite DNA and recombinant histones expressed and purified from E. coli. Tri-methylation was chemically introduced to H3K9C, H3K27C, H3K36C and H3K79C histones respectively as described (Simon et al., 2007). 2 μg MLA nucleosome was used for GST-pulldown as described above.

[1] = system: nucleosomes purified from HeLa; assay: Nucleosome pulldown by GST-NPAC proteins; format: binding
Method: Nucleosomes were purified from HeLa as previously described (Umlauf et al., 2004). To examine nucleosome binding selectivity of NPAC, 5 μg GST fusion protein bound to glutathione agarose were incubated with 20 μg nucleosomes overnight at 4° C. in nucleosome binding buffer (50 mM NaPO4 pH 7.4, 200 mM NaCl, 0.5% NP-40, 5% glycerol, 10 μM ZnSO4, 1 mM MgCl2, 1 mM DTT, 0.1 mM PMSF). After washing 4 times with the same buffer at 4° C., the beads were boiled in 1×SDS sample loading buffer and elute was resolved by 15% SDS-PAGE for immunoblot analysis or coomassie staining.
For free-DNA competition assays, human genomic DNA was purified from HeLa cells and fragmented to an average size around 300 bp by sonication. Equal amounts of GST-NPAC.d5 bound to glutathione beads were pre-incubated with 0, 5, 10, 25 μg genomic DNA fragments in nucleosome binding buffer for 30 minutes at room temperature, and equal amounts of nucleosomes were added and incubated overnight at 4° C. After extensive washing, GST-NPAC.d5 and bound nucleosomes were eluted by boiling in 1×SDS sample loading buffer, resolved by SDS-PAGE and stained with coomassie blue.

double strand DNA = assay: DNA binding assay (GST-pulldown)
Method: 5-10 μg GST and GST-tagged NPAC truncation proteins were incubated with 1 μg linearized plasmid DNA overnight at 4° C. in 50 mM Tris pH 7.4, 200 mM NaCl, 0.2% NP-40, 1 mM MgCl2, 1 mM EDTA, 1 mM DTT, 0.02 mM ZnSO4. After extensive washing with the same buffer, bound DNA was eluted by incubating with 100 μl 10 mM Tris pH 8.0, 1% SDS for 15 minutes at 65° C. Pulldown DNA was purified using Qiagen PCR purification kit, resolved by agarose gel electrophoresis and stained with Ethidium Bromide.

B1: NPAC.d1: Example 2 GST-NPAC truncation, residues 1-150 (protein, UniProt Q49A26 1-150, looked up, fragment)
chain: MAAVSLRLGDLVWGKLGRYPPWPGKIVNPPKDLKKPRGKKCFFVKFFGTEDHAWIKVEQLKPYHAHKEEMIKINKGKRFQQAVDAVEEFLRRAKGKDQTSSHNSSDDKNRRNSSEERSRPNSGDEKRKLSLSEGKVKKNMGEGKKRVSSG
modifications: GST tag
Binding to modification-specific MLA nucleosomes (H3Kc36me3 nucleosomes): highest binding affinity for H3Kc36me3 nucleosomes over H3Kc79me3
Nucleosome binding (GST-pulldown) [1]: strong binding to nucleosomes
DNA binding (GST-pulldown) (double strand DNA): can bind to double strand DNA
